According to patent publication US20240124556A1, “KERATIN BD-3, PREPARATION METHOD THEREFOR AND PHARMACEUTICAL COMPOSITION AND USE THEREOF” (INSTITUTE OF MATERIA MEDICA, CHINESE ACADEMY OF MEDICAL …, priority 2019, published 2024):

How the values were obtained:
[1] = test system: lipopolysaccharide (LPS) induced fever model in SD rats; test: Lipopolysaccharide (LPS) induced fever in SD rats; type: in vivo; details: for Body temperature 2 hours after modeling / Body temperature 4 hours after modeling / Body temperature 6 hours after modeling / Body temperature 8 hours after modeling: LPS 20 μg/kg i.p.; for Body temperature 2 hours after modeling: model group 37.6 ± 0.1; for Body temperature 4 hours after modeling: model group 37.8 ± 0.1; for Body temperature 6 hours after modeling / Body temperature 8 hours after modeling: model group 37.8 ± 0.2
Method: • Animals: 230-260 grams of male SD rats; • Drugs: lipopolysaccharide (LPS, SIGMA L-2880), aspirin (SIGMA A2093), protein BD-3; Instruments: electronic balance (SARTORIUS BP121S type), electronic clinical thermometer (CITIZEN CT-513W type). • Experiment grouping: • Normal control group; • Model group: lipopolysaccharide fever model; • Positive control group: Aspirin 300 mg/kg group; • Protein BD-3, 10 mg/kg group, 50 mg/kg group. • Method: the method of intraperitoneal injection of Lipopolysaccharide to replicate rat fever model.
Preparation of experimental animals: After the experimental animals adapt to the experimental environment (temperature 22° C.±2° C., relative humidity 50%±2%) for 1 day. Pre-adaptation to measure rectal temperature at 8:00 and 15:00, rats were fasted and water was taken freely 12 h before experiment, and let the animal to empty its feces before measuring the rectal temperature. Apply petroleum jelly to the electronic thermometer probe before each temperature measurement. Insert the rat rectum 2 cm (can be marked at 2 cm to ensure that the depth of each insertion is consistent), and record the body temperature after the reading is stable.
Intraperitoneal injection of lipopolysaccharide to replicate rat fever model: The body temperature of the rats was measured before modeling. Qualified rats with a body temperature of 36.2-37.3° C. were selected and randomly divided into groups with 8 rats in each group. After oral administration of aspirin and different doses of protein BD-3, lipopolysaccharide (20 μg/kg, 2 ml/kg) was injected intraperitoneally immediately, and the normal control group was injected intraperitoneally with an equal volume of normal saline. The body temperatures of the rats were monitored after 2 hours for a total of 8 hours.
According to the body temperature measured at each time point on the day of the experiment, calculate the mean, standard deviation and standard error of the body temperature of each group of rats. The data of each group was compared with TTEST, and P<0.05 was considered as a significant difference.

[2] = test system: PTZ-induced epilepsy in mice; test: Pentylenetetrazole (PTZ)-induced epilepsy in mice; type: in vivo, ICR mice; details: for mortality rate / Grade IV seizure rate / Cases of Grade IV / Cases of deaths: PTZ 65 mg/kg i.p.; for mortality rate: model group 10%; for Grade IV seizure rate: model group 90%; for Cases of Grade IV / Cases of deaths: of 10 mice; for Cases of Grade IV: 15 min observation, model group 9; for Cases of deaths: model group 1; for Grade IV seizure incubation period / Grade III seizure incubation period: mean ± SEM; for Grade IV seizure incubation period: maximum recorded 900 seconds, model group 185 ± 84; for Grade III seizure incubation period: model group 63 ± 6
Method: • Animals: male ICR mice; • Medicines: Pentylenetetrazol (PTZ), Retigabine, Protein BD-3. • Experiment grouping: • Model group; • Retigabine 60 mg/kg group; • Protein BD-3, 50 mg/kg group, 200 mg/kg group;
The drug was administered once in the afternoon the day before modeling, On the day of modeling, PTZ-65 mg/kg (modeling agent) was injected intraperitoneal 1 hour after the test drug was administered intragastrically, and the positive drug can be administered once half an hour before modeling. Continue to observe for 15 minutes after injection of PTZ.
Observation index: (1)Seizure situation: the time of seizures from Grade III to Grade VI; (2)Death situation
Seizure grade: Refer to Racine grading standard: Grade 0: No response; Grade I: manifested as twitching of facial muscles or the corners of the mouth; Grade II: can nod; Grade III: twitching of one limb; Grade IV: rigidity or body twitching; Grade V: generalized epilepsy (generalized tonic seizures).
Count the cases of seizures and deaths in each group of mice in the experiment; Grade III and IV incubation period. The incubation period of mice that have not attacked to Grade IV is recorded as the maximum of 900 seconds. Chi-square test was used for statistics of the number of cases. Calculate the mean and standard error of the incubation period. Use TTEST to compare the model group with other groups, and P<0.05 is considered as a significant difference.

[3] = test system: phenol red excretion in mice; test: Expectorant test, phenol red excretion method in mice; type: in vivo, ICR mice; details: for Phenol red excretion: X ± SEM, solvent control 0.506 ± 0.040
Method: • Animals: male ICR mice; • Drugs and reagents: Mucosolvan (ambroxol hydrochloride tablets), phenol red, sodium bicarbonate, protein BD-3; • Instruments: centrifuge (Sigma-3K15 type), balance (XS105DU type), Microplate tester (BIO-TEK type). • Experiment Grouping: • Solvent control group; • Mucosolvan 30 mg/kg group; • Protein BD-3, 20 mg/kg group, 50 mg/kg group.
The animals were fasted and water was taken freely 16 hours before the experiment. Orally administered Mucosolvan and different doses of protein BD-3 (administration volume 10 ml/kg) in groups, and the solvent control group was given the same volume of distilled water. One hour later, 2.5% phenol red solution was injected intraperitoneally. Mice were sacrificed by neck dislocation after 30 minutes. Take a trachea from below the thyroid cartilage to the branch of the trachea, and put the trachea into 3 ml 5% NaHCO3 solution and let it stand for 3 hours. Take 1 ml of the supernatant and centrifuge at 3000 rpm for 5 minutes. Measure and record the absorbance at 546 nm. According to the standard curve of phenol red, the excretion of phenol red was calculated.
Record the time point of oral administration, the time point of intraperitoneal injection of 2.5% phenol red solution, and the time point of taking the trachea respectively; The absorbance of each group of samples was measured by the microplate reader at 546 nm, Calculate the excretion of phenol red according to the standard curve of phenol red. Calculate the mean and standard error of the data in each group, and use TTEST to compare the solvent control group with other groups, and P<0.05 is considered as a significant difference.

[4] = summary statement, no dose given

B1: BD-3: recombinant keratin, amino acid sequence SEQ ID NO:1, expressed in E. coli, band around 43 kD; tested material prepared in Example 4 (protein, listed as Bos taurus)
chain: MSYSCCLPNLSFRSSCSSRPCVPSSCCGTTLPGACNIPANVGSCNWFCEGSFNGSEKETMQFLNDRLASYLEKVRQLERDNAELESRILERSQQKILANKAENARLVVQIDNAKLAADDFRTKYQTELGLRQLVESDINGLRRILDELTLCKSDLEAQVESLKEELICLKQNHEQEVNTLRSQLGDRLNVEVDAAPTVDLNRVLNETRAQYEALVETNRRDVEEWYIRQTEELNKQVVSSSEQLQSYQAEIIELRRTVNALEVELQAQHNLRDSLENTLTETEARYSCQLAQVQGLIGNVESQLAEIRSDLERQNQEYQVLLDVRARLECEINTYRGLLDSEDCKLPCNPCATTNASSVGSCVTNPCTPCGPRSRFGPCNTFGC
[1]; BD-3 10 mg/kg oral
  Body temperature 2 hours after modeling: 37.6 ± 0.1 °C
  Body temperature 4 hours after modeling: 37.9 ± 0.2 °C
  Body temperature 6 hours after modeling: 37.9 ± 0.2 °C
  Body temperature 8 hours after modeling: 37.6 ± 0.2 °C
[1]; BD-3 50 mg/kg oral
  Body temperature 2 hours after modeling: 37.2 ± 0.2 °C
  Body temperature 4 hours after modeling: 37.3 ± 0.2 °C
  Body temperature 6 hours after modeling: 37.7 ± 0.3 °C
  Body temperature 8 hours after modeling: 37.6 ± 0.2 °C
[1]; BD-3 50 mg/kg, at 2 hours and 4 hours after modeling, P<0.05 vs model group
  Effect on body temperature of model rats (in words): can reduce the body temperature of model rats
[1]; [4]
  Summary: antipyretic effect in LPS fever model (in words): has a significant effect of reducing body temperature rise at 2 hours and 4 hours after modeling
[2]; BD-3 50 mg/kg intragastric
  mortality rate: 10%
  Grade IV seizure rate: 100%
  Cases of Grade IV: 10
  Cases of deaths: 1
[2]; BD-3 50 mg/kg
  Grade IV seizure incubation period: 162 ± 58 s
  Grade III seizure incubation period: 75 ± 6 s
[2]; BD-3 200 mg/kg
  Epilepsy Grade III incubation period vs model group (in words): has a tendency to extend the incubation period, but there is no statistical difference compared with the model group
  Grade IV seizure incubation period: 327 ± 125 s
  Grade III seizure incubation period: 62 ± 5 s
[2]; BD-3 200 mg/kg intragastric
  mortality rate: 0%
  Grade IV seizure rate: 70%
  Cases of Grade IV: 7
  Cases of deaths: 0
[3]; BD-3 20 mg/kg oral
  Phenol red excretion: 0.750 ± 0.085 µg/mL
[3]; BD-3 20 mg/kg, P<0.05
  Excretion of phenol red vs solvent control (in words): significantly increased the excretion of phenol red
[3]; BD-3 50 mg/kg oral
  Phenol red excretion: 0.706 ± 0.114 µg/mL
[3]; [4]
  Summary: expectorant effect (in words): has obvious expectorant effect
